From PMC2965066 (Science (New York, N.Y.), 2010)

Tests used:
YU2 gp120 [1] = target: T1, YU2 gp120 (HIV-1 (strain YU2), UniProt P35961); assay: SPR
YU2 gp120 [2] = target: T1, YU2 gp120; assay: ELISA

B1: VRC03 (antibody, V domains shown)
VH: QVQLVQSGAVIKTPGSSVKISCRASGYNFRDYSIHWVRLIPDKGFEWIGWIKPLWGAVSYARQLQGRVSMTRQLSQDPDDPDWGVAYMEFSGLTPADTAEYFCVRRGSCDYCGDFPWQYWGQGTVVVVSS
VL: EIVLTQSPGILSLSPGETATLFCKASQGGNAMTWYQKRRGQVPRLLIYDTSRRASGVPDRFVGSGSGTDFFLTINKLDREDFAVYYCQQFEFFGLGSELEVH
Kd (YU2 gp120 [1]): 73.1 nM | binding result (YU2 gp120 [2]): binds
